{"source": "patent US8541200B2", "about": "“Cleavage of fusion proteins using Granzyme B protease” (Hoffmann-La Roche Inc., priority 2003, dated 2013)", "molecules": {"B1": {"name": "H6-IEPD-RAP: hexa-His RAP fusion protein with Granzyme B recognition site IEPD, SEQ ID NO. 23 (protein)", "chain": "MGSHHHHHHGSIEPDYSREKNQPKPSPKRESGEEFRMEKLNQLWEKAQRLHLPPVRLAELHADLKIQERDELAWKKLKLDGLDEDGEKEARLIRNLNVILAKYGLDGKKDARQVTSNSLSGTQEDGLDDPRLEKLWHKAKTSGKFSGEELDKLWREFLHHKEKVHEYNVLLETLSRTEEIHENVISPSDLSDIKGSVLHSRHTELKEKLRSINQGLDRLRRVSHQGYSTEAEFEEPRVIDLWDLAQSANLTDKELEAFREELKHFEAKIEKHNHYQKQLEIAHEKLRHAESVGDGERVSRSREKHALLEGRTKELGYTVKKHLQDLSGRISRARHNEL", "modifications": "H6-IEPD-RAP"}, "B2": {"name": "IEPD-GrB-H6: self-activating human pro-Granzyme B with IEPD recognition site and C-terminal H6, SEQ ID NO:2 (protein)", "chain": "MGSIEPDIIGGHEAKPHSRPYMAYLMIWDQKSLKRCGGFLIQDDFVLTAAHCWGSSINVTLGAHNIKEQEPTQQFIPVKRPIPHPAYNPKNFSNDIMLLQLERKAKRTRAVQPLRLPSNKAQVKPGQTCSVAGWGQTAPLGKHSHTLQEVKMTVQEDRKCESDLRHYYDSTIELCVGDPEIKKTSFKGDSGGPLVCNKVAQGIVSYGRNNGMPPRACTKVSSFVHWIKKTMKRYLNSHHHHHH", "modifications": "C-terminal His6 tag; pro-IEPD-GrB-H6"}, "B3": {"name": "IEAD-GrB-H6: self-activating human pro-Granzyme B with IEAD recognition site and C-terminal H6, SEQ ID NO:3 (protein)", "chain": "B2 chain with P6A", "modifications": "pro-IEAD-GrB-H6"}, "B4": {"name": "H6-IEPD-TN123: hexa-His Tetranectin (TN123) fusion protein with Granzyme B recognition site IEPD, SEQ ID NO. 25 (protein)", "chain": "MGSHHHHHHGSIEPDGEPPTQKPKKIVNAKKDVVNTKMFEELKSRLDTLAQEVALLKEQQALQTVCLKGTKVHMKCFLAFTQTKTFHEASEDCISRGGTLSTPQTGSENDALYEYLRQSVGNEAEIWLGLNDMAAEGTWVDMTGARIAYKNWETEITAQPDGGKTENCAVLSGAANGKWFDKRCRDQLPYICQFGIV", "modifications": "H6-IEPD-TN123"}}, "key": {"[1]": {"biological_target": "FXa (Bos taurus, UniProt P00743)", "sequence (P00743 234-492 limits assumed)": "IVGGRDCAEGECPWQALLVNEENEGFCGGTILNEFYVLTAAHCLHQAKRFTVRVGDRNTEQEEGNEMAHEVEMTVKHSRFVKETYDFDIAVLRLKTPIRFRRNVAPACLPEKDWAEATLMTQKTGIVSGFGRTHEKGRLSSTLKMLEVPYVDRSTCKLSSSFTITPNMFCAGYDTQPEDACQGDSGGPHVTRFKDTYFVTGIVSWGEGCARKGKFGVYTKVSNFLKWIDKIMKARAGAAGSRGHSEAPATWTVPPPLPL", "sequence (P00743 41-180 partner limits assumed)": "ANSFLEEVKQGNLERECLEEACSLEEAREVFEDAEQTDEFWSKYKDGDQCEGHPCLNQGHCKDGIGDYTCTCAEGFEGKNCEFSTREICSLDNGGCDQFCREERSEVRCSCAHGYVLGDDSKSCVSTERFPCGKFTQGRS", "experiment": "Cleavage of fusion proteins by FXa, SDS PAGE", "format": "biochemical, bovine", "conditions": "protease:fusion protein 1:1000, 23° C.", "method": "(§1) Both H6-IEPD-RAP (SEQ ID NO: 23) and H6-IEGR-RAP were in 100 mM HEPES pH 7.4 and the following incubations were set up at room temperature, 23° C., with the protease:fusion protein ratio 1:1000: • 1. […] 400 μl (app. 400 μg) H6-GrB-RAP+2 μl GrB-H6 (app. 0.4 μg)\n250 μl (app. 400 μg) H6Ubi-IEPD-ApoA1+0.4 μg GrB-H6 C228F • 2."}, "[2]": {"experiment": "Colorimetric Granzyme B activity assay with Ac-IEPD-pNA (absorbance at 405 nm)", "format": "biochemical", "conditions": "for Granzyme B activity ΔOD405/min: pro-IEGR-GrB-H6 incubated with FXa at 4° C.; for completion of self-activation: 4° C., without addition of previously activated Granzyme B; for ΔOD405/min (self-activation): 100 mM HEPES pH 7.5", "method": "GrB-H6 activity was measured using the following mix: 500 μl buffer, 2 μl 100 mM Ac-IEPD-pNA, and 5 μl GrB-H6.\nRecombinant self-activating human Granzyme B derivatives IEPD-GrB-H6 and IEAD-GrB-H6 were produced as described in Example 2 by using the expression vectors pT7-IEPD-GrB-H6 and pT7-IEAD-GrB-H6 described in Example 1. The IEAD-GrB-H6 and IEPD-GrB-H6 proteins were eluted from the SP Sepharose columns and stored at 4° C. for 2 days before the activity of the respective top fractions were determined by using a colorimetric assay. For this purpose the following was mixed: 500 μl buffer (100 mM HEPES pH 7.5), 2 μl 100 mM Ac-IEPD-pNA, and 5 μl protein solution. The change in absorption was then determined at 405 nm during 3 min. The activity was further determined after additional incubation for 1 and 2 days at 4° C.\nThe activity of the activated and purified GrB-H6 was measured in different buffers using the Ac-IEPD-pNA substrate: 500 μl buffer, 2 μl 100 mM Ac-IEPD-pNA, and 5 μl GrB-H6. The ΔOD405/min was calculated from the first 0.75 min unless otherwise noted."}, "[3]": {"biological_target": "T1, GrB-H6 (Homo sapiens, UniProt P10144, R55Q)", "T1 construct": "MGSIEGR (N, cleaved yes); made in house; host or cells: E. coli BL21", "experiment": "Cleavage of fusion proteins by GrB-H6, SDS PAGE", "format": "biochemical", "conditions": "for fusion protein cleaved at IEPD↓ and internal AQPD↓ site: 10 μl GrB-H6, no Ca^2+", "method": "The fusion protein H6-TripUB IEPD↓SP (SEQ ID NO: 22) (prepared as described in Example 7) eluted from the Ni^2+-NTA-agarose column was gel filtrated into 100 mM HEPES pH 7.5 and 200 μl samples of the top-fraction was incubated at room temperature with either 0, 1 or 10 μl of activated GrB-H6 (approximately 0, 0.2 and 2 μg GrB-H6).\nWith the H6-TripUB IEPD↓SP (SEQ ID NO: 22) fusion protein the following nine incubations (Table 9) were set up using 200 μl H6-TripUB IEPD↓SP (SEQ ID NO: 22) and 5 μl GrB-H6 (approximately 1 μg GrB-H6) for each incubation.\nThe fusion protein H6-IEPD-RAP (SEQ ID NO: 23) (prepared as described in Example 7) eluted from the Ni^2+-NTA-agarose column was gel filtrated into 100 mM HEPES pH 7.4 and 200 μl samples of the top-fraction was incubated at room temperature with either 0, 1 or 10 μl of activated GrB-H6 (approximately 0, 0.2 and 2 μg GrB-H6). Samples for SDS PAGE were taken after 5, 23 and 26 hours of incubation, see FIG. 10.\nas §1\nThe fusion protein H6-IEPD-TN123 (SEQ ID NO: 25) (prepared as described in Example 7) eluted from the Q Sepharose was after final purification gel filtrated into 100 mM HEPES pH 7.5, and 200 μl samples of the top-fraction was incubated at room temperature with either 0, 1 or 10 μl of activated GrB-H6 (approximately 0, 0.2 and 2 μg GrB-H6) both with and without 5 mM CaCl2 present. Samples for SDS PAGE from the incubations without CaCl2 were taken after 12, 19 and 24 hours as well as 5 days of incubation. Samples for SDS PAGE from the incubations both with and without CaCl2 were taken after approximately 20 and 48 hours of incubation, see FIG. 14.\nEach of the fusion proteins eluted from the Ni^2+-NTA-agarose column were gel filtrated into 100 mM HEPES pH 7.4 and fractions of approximately the same concentration of the five different H6-TripUB variants were used. The five variants were H6-TripUB IEPD↓SP (SEQ ID NO: 22), H6-TripUB IQAD↓SP (SEQ ID NO: 26), H6-TripUB IQAD↓SG (SEQ ID NO: 27), H6-TripUB VGPD↓SP (SEQ ID NO: 28) and H6-TripUB VGPD↓FG (SEQ ID NO: 29). Of each fusion protein 200 μl was incubated at room temperature, 23° C., with 5 μl of activated GrB-H6 (approximately 1 μg GrB-H6). The protease:fusion protein ratio was thereby 1:500."}}, "note": "Residue numbers refer to the chain shown, from its start. “Also recorded” adds a separate entry of the source.", "data": [{"molecule": "H6-IEGR-RAP: FXa cleavable hexa-His RAP fusion protein with recognition sequence IEGR", "values": [{"measurement": "correctly cleaved product left", "setting": "[1]; 27 hours", "result": "no correctly cleaved product left"}, {"measurement": "fusion protein correctly cleaved", "setting": "[1]; ½ hour", "result": "almost all of the fusion protein has been cleaved"}]}, {"molecule": "pro-IEGR-GrB-H6: pro-Granzyme B fusion protein with FXa recognition sequence IEGR and C-terminal hexa-His tag, SEQ ID NO:1", "values": [{"measurement": "Granzyme B activity ΔOD405/min", "setting": "[2]; 0 hours", "result": "0.0073 ΔOD405/min"}, {"measurement": "Granzyme B activity ΔOD405/min", "setting": "[2]; 2 hours", "result": "0.0200 ΔOD405/min"}, {"measurement": "Granzyme B activity ΔOD405/min", "setting": "[2]; 5 hours", "result": "0.0250 ΔOD405/min"}, {"measurement": "Granzyme B activity ΔOD405/min", "setting": "[2]; 19 hours", "result": "0.0829 ΔOD405/min"}, {"measurement": "Granzyme B activity ΔOD405/min", "setting": "[2]; 2 days (45 hours)", "result": "0.1325 ΔOD405/min"}, {"measurement": "Granzyme B activity ΔOD405/min", "setting": "[2]; 5 days (120 hours)", "result": "0.1832 ΔOD405/min"}]}, {"molecule": "B1", "values": [{"measurement": "GrB-sensitive sites in RAP", "setting": "[3]; 19 possible sites (19 Asp residues)", "result": "only one GrB-sensitive site"}, {"measurement": "fusion protein cleaved", "setting": "[3]; 200 μl fusion protein + 1 or 10 μl GrB-H6, room temperature, 5 hours", "result": "all the H6-IEPD-RAP (SEQ ID NO: 23) has been cleaved to give the final product; also recorded: all the H6-IEPD-RAP (SEQ ID NO: 23) was cleaved to give the final product"}, {"measurement": "fusion protein correctly cleaved", "setting": "[3]; protease:fusion protein 1:1000, 23° C., ½ hour", "result": "nearly all the H6-IEPD-RAP (SEQ ID NO: 23) has been cleaved correctly"}]}, {"molecule": "B2", "values": [{"measurement": "completion of self-activation", "setting": "[2]", "result": "not completed until after a least three or four days"}, {"measurement": "ΔOD405/min (self-activation)", "setting": "[2]; stored at 4° C. 2 days", "result": "0.1284 ΔOD405/min"}, {"measurement": "ΔOD405/min (self-activation)", "setting": "[2]; stored at 4° C. 3 days", "result": "0.1375 ΔOD405/min"}, {"measurement": "ΔOD405/min (self-activation)", "setting": "[2]; stored at 4° C. 4 days", "result": "0.1351 ΔOD405/min"}]}, {"molecule": "B3", "values": [{"measurement": "completion of self-activation", "setting": "[2]", "result": "not completed until after a least three or four days"}, {"measurement": "ΔOD405/min (self-activation)", "setting": "[2]; stored at 4° C. 2 days", "result": "0.1372 ΔOD405/min"}, {"measurement": "ΔOD405/min (self-activation)", "setting": "[2]; stored at 4° C. 3 days", "result": "0.1607 ΔOD405/min"}, {"measurement": "ΔOD405/min (self-activation)", "setting": "[2]; stored at 4° C. 4 days", "result": "0.1983 ΔOD405/min"}]}, {"molecule": "B4", "values": [{"measurement": "internal cleavage at AQPD↓ site", "setting": "[3]; 5 mM Ca^2+ added", "result": "no internal cleavage is observed"}, {"measurement": "fusion protein cleaved at IEPD↓ and internal AQPD↓ site", "setting": "[3]; 2 days", "result": "almost all the fusion protein has been cleaved twice"}, {"measurement": "fusion protein cleaved at IEPD↓ and internal AQPD↓ site", "setting": "[3]; 5 days", "result": "almost all of the fusion protein has been cleaved twice"}, {"measurement": "fusion protein correctly cleaved", "setting": "[3]; 200 μl fusion protein + 10 μl GrB-H6, 5 mM Ca^2+, 12 hours", "result": "approximately 40%"}, {"measurement": "sites cleaved", "setting": "[3]; no Ca^2+ present", "result": "cleaved correctly at the IEPD sequence, but also just as rapidly at an internal site of the sequence AQPD"}]}]}
